This passage reports protein production results from a protein production outcome set (Wang et al. 2014).

A short description of this series: label from the status in PepcDB records.
With “MASKKKPIDSRVDYSLILPVFFLVLIGLFSVYTATIHDYPSKIMVVMGQQLIWLIMGAAISFVVMLFSTEFLWKITPYLYGLGLILMIFPLIFYSPELVASTGAKNWVSIGSVTLFQPSEFMKISYILILARLTVTFKQKYKEKNLQEDGKLLLWFALLTLPIMILLALQKDLGTAMVFMAILAGLVLIAGISWQIILPVVGAVALIVALFMVVFLIPGGKEFLYHHMGVDTYQINRLSAWLNPFDYAGSIAYQQTQGMISIGSGGLFGKGFNIVELPVPVRESDMIFTVIAENFGFIGGSIVLALYLILIYRMLRVTFASNNLFYTYISTGFIMMILFHIFENIGAAVGILPLTGIPLPFISQGGSSLISNLIGVGLVLSMSYQNSLNQEKATERYFAHIKKESLTS”, the protein production entry is given as “failed”. Consider “LQESEARFQAFMNNSPSASWITDDHGRMLYLSQTYVRTFQLPFDKVEDVTGKTVFELYTPEVAQPFLDNIHRVAQTQQILETIEKAPRLDGTLGDFLVYKFPLPATTGELFIGGVAVDISDKIRAEQALQKLNQELEAR”, for which the protein production result is on record as “not failed”. “MGHHHHHHSHLSPDRRASLLTSLMLVKRDYRYDRVLFWGRILGLVADYYIAQGLSEDQLAPRKTLYSLNCTEWSLLPPATEEMVAQSSVVKGRFMGDPSYEYEHTELQKVNEGEKVFEEEIVVQIKEETRLVSVIDQIDKAVAIIPRGALFKTPFGPTHVNRTFEGLSLSEAKKLSSYFHFREPVELKNKTLLEKADLDPSLDFMDSLEHDIPKGSWSIQMERGNALVVLRSLLWPGLTFYHAPRTKNYGYVYVGTGEKNMDLPFML”: the protein production result is listed as “failed”.

Turning to “MPNNETEASMRNTLFPTLKWSLLVLMTSLLTACGFHLRGDYDIPQELSRMSLTSYDQYSTFTRMVHRQLRLNKIDLQAPAEDLPNLHLLSESTGERTLSLYQNTRAAEIELTFVASYRVTVPELGSRTFTTSVTRSYLDNPLTALAKSVERDMIEDEMRKLAASQIVRQMARLKADFARKTLDDESIEGKGITDYRVDTQEVANPVSTEGSSELEHHHHHH”, the protein production result is “not failed”. Turning to “MKISIITAVYNDPRVERCLDSVASQQGNFEVEHIVVDSESTDDTVDVIEQYENHIDCLISEPDDGMYDAINKGIEAATGDVIGLLNADDYYQDQRVLHDVASQLAETGADACYGDLVYVDADDDVVRYWKSDEYSRYKLYYGWMPPHPTFFVRHEIYERHGGFDLSYEISADYELMIRLLLNTDISVTYLDRVLVRMELGGMSNQSIENMLTVIEDMYRGWKKHNRLGRFVAPFLHPVEKVPQFIRSPPGEKEGTLEHHHHHH”, the protein production result is “failed”.

In the case of “MKEVTPRFVELGQVSAIRTEPEIAYRSNQGVTRQRQQTKVFKLVSTYDKVAVKNAIRAAYRQVFERDLEPYIINSEFTALESKLSNNEINVKEFIEGLGTSELYMKEFYAPYPNTKVIEMGTKHFLGRAPLNQKEIQQYNQILASQGLKAFIGAMVNGMEYLQTFGEDTVPYRRFPTLPAANFPNTERLYNKLEHHHHHH”, the protein production result is “not failed”. Consider “MSGSGKTITQMKSTAILAPVIAVILILSACGKPMDAQALVAEAKQYQQQGNDKAAIIQLKNALQQSPNDPEIRYLLGTLYNREGDIQSAEKELNKALDLGMDPVKVLPGLSRAWLGMGKFQQVLDETGKLSDKGNFAELLALRGNASLALGKFEEAKVLFEQALQDKPGFSDALTGLARYSLARNDIESAMNFSEEAVKLNPENSDAVLFRGDLLRAQNKIDEALADYDKAIKLNPESEAAYINRATISISTKKFEAAQADLDAVRKIAPGSLLAAYTQALLDFSQGKHAVALETLQRILSSAPGHLPSVLLAGATQFALGSFPQAGQYVEQYLKAIPNNLYAIKLMASIQLKNNQVKQAITTLTPALKSVQQDPQLFALAGEAYMRSKDFTKASEYFEKAGELAPDNASLYTALAMSKMGQGDSKSAIADLEQAAQLDDQSGRAGVMLVLTHLQLREFDKALKAVESQLAEQPDNPLLHNLKGGIYLGKKDLAKARSSFNQALSIQSDYFPAISNLARIDMQENHPEAAQQRFEDVLKRDKKNVQAMNALAGIALARGNKEEATGWLEKASRENPDELQPALQLGAHYLAVNDPGKSLALAKKLQGIHPDNLSIVELLARSYLATGDKDAALENFQKLAARLPDSAPAQLQLAQIYSSMQNNKAAAGSLKKALTIKPDLWEAKLMQAQLAVAADRVEDAFNISHDLQKQHEKLPVGFELEGDLQMRQKNAAAAATAYEKALSRQKNSQLLIKLHTALSQSGKEKQADQRLNQWLKENPTDAVTRTYLAGVYLASKKYDPAIKEYQTILKQHPDHAATLNNLAWVYQQKKDPVALEYAEKAYKQAPDSPAILDTLGWILIEKGDAERGTSLLQKAVTAVPEAAEIRYHYAVGLFKSGNKAEARQELEKLLGGDKPFPQRDDAKKLLESL”, for which the protein production entry is “failed”. Next, “MTARPDSSGASSRHDRLQRHPTPNARNSLWRWTDAKHPLRVALNYVVIVLARISPSLHAKNWLLARIGVTVGDGVAWGLESTPDVFWPELVTVGDDAIIGYDATLLCHEFLHDEYRTGAVVVEDRAMIGAGAVVLPGVTIGADAQVAANSLVTADVPPGETVAGVPAAPTGD”: “failed”. Next, “MSKEIFDTFKFKCGAELKNRVLMAPMTIQAGYFDGSVTSEMIDYYQFRAGDASAIIVESCFVENHGRGFPGAIGIDNDDKIPGLKRLAEAIQAKGSKAILQLYHAGRMANPKFNEGEQPISASPIAALRPDAVPPREMTHAQINQMIDDFGEATRRAIEAGFDGVEIHGANTYLLQQFFSPHSNRRQDSWGGSREKRTRFPIEVLTKVQHVVAEKEASHFIIGYRFSPEEIEEPGIRFEDTMFLLNTLAEYEPDYFHISANSYQRTSIVNQEDTEPLINKYIKMQSAQLAKIPLIGVGSIAQRQDAEHALELGYDLLSVGKAYLVEPQWTDKISQNEEVEQFVDIHDQKVLHIPSPLWKVMDFMILDKEEEHRKYEKLKALQNKKVKFNKGTYHVYAKGHNGNLPMKVQLSEDKIVSIEVDDSGESEGIANPVFERLPQDIINGQTLNVDVISGATVTSEGIVQGIADAIEQAGEDPDILRARPKPVVQWSDEVVEETTDVVVIGTGGAGLSAAATVLDEGKEVIMLEKFAAIGGNTIRTGGQVNAAEPKWQNAFPALAGEKETLIQLLNHDENDIDEAYIEDFNTLKRQIKDYLENSSNEDEYLFDSVELHRIQTYLGGKRKDRNNVEISGDYDLVKTLTDNVLESVYWLKDKGVHFDRSFVDMPVGALWRRGHKPMKAQGLEYIENLGDYVKHNHGRIFTETTAEKLIKEGNQVVGIEARKANGAKVKIHTRHGVVLATGGFGANTKMLQQYNTYWDNIPDDIKTTNSPAITGDGIRLGVQAGADIVGMGFSQMMPISDPKTGALFTGLIVTPSNFVFVNKEGQRFVNEFESRDVLSKAALEQKDGIFYIIADANIKALAMNTTEDKINQELEDGTLVKADTLEALAQKLNIDTTTFVNTIERYNTFVEQGQDEDFNKNAFDLKIEKAPFYATPRKPAIHHTMGGLKINTHAQVIDVEGHIIEGLYAAGEVAGGIHAGNRLGGNALADIFTFGRIAGQSAVTK”: “failed”; “MASGKQFMKKPIVWTIAGVDSSGLAGVHADMETFSRLNVRACSVITAVTAQNAHSIIAVEEISRDQVAAQCRALELNLKPDAIKIGMLCSTPICEEIAYFLKGYEGFVVLDPIITSSSGTNLFFPDLQQHKNNLIQLFPYITIITPNRIEAEIILNRSIYSYQDIINAASDLLSLGAKQVLLKGGHVKDNSFSQDYWTDGKESFWIANRRFPETNYRGTGCVLSSALTACLALGYSIKDAIVIAKMYVNRGIRQSIEIDKDASQLYHDGWPEDEADLPYLSPTPFIKPVPSFKKYSMGFYPIVDSSHWLEMLLPLGIKCIQLRIKEASQERLEEEIKRSVHLANQYNAALFINDHWELAIHYGAAGVHLGQEDLEKADVDRINRSGLFLGISTHCYYEVARAHALNPSYVACGPIYETTSKIMPFQAQGIARLERWRKTLRYPLVAIGGITLKNLSDVLKTKIDGVSVISAITKASAPLVAAKQFLTQMNESHNE”: “failed”.

On to “MNNENMVRVFYVLLMGLGFPIMRFMSIHFETLNNNSVRFLSGGSLFVIICLIKFRSELKKIIGEPKIILYLFIYLFILGIFMTGNMFFFINGLKYTSALAGSIFGILAMPLAIIIAGIFFKDERDRIRQKEFYIGELLAIIGSLIFVINSSNNDGNTDFFLGAIFLFTAIFIQSVQNLIVKKVAKKINAVVISASTATISGVLFLCLAFNTKQIYLLQDVGIGMLIGLVCAGFYGMLTGMLMAFYIVQKQGITVFNILQLLIPLSTAIIGYLTLDERINIYQGISGIIVIIGCVLALKRKNKEC”, for which the protein production entry is on record as “failed”. In the case of “MAGEFRLLSHLCSRGSKVGELAQDTRTSLKTSWYLLGPAFVAAIAYVDPGNVAANVSSGAQFGYLLLWVIVAANVMAALVQYLSAKLGLVTGRSLPEAIGKRMGRPARLAYWAQAEIVAMATDVAEVIGGAIALRIMFNLPLPIGGIITGVVSLLLLTIQDRRGQRLFERVITALLLVIAIGFTASFFVVTPPPNAVLGGLAPRFQGTESVLLAAAIMGATVMPHAVYLHSGLARDRHGHPDPGPQRRRLLRVTRWDVGLAMLIAGGVNAAMLLVAALNMRGRGDTASIEGAYHAVHDTLGATIAVLFAVGLLASGLASSSVGAYAGAMIMQGLLHWSVPMLVRRLITLGPALAILTLGFDPTRTLVLSQVVLSFGIPFAVLPLVKLTGSPAVMGGDTNHRATTWVGWVVAVMVSLLNVMLIYLTVTG”, the protein production result is on record as “failed”. Under “MNLNAKKTTTAVQSASENPKLRVMPKQLFSRTPVLAGGNAAAKREEIREYFHSTLDRYEQLFETLRGDAAYFKKPISLRHPLIFYLGHTATFFTNKLLLAGLITDRINPKMESMFAVGVDEMSWDDLDTTHYDWPSVEEVRAYRRRMRETVDRLIRETPLTLPIEWDSPWWTIMMGIEHERIHLETSSVLIRQHALEHVAPHPAWEPCRKSGPAPDNQLVKVPEGTVQLGKKKDDPFYGWDNEYGTHIADVAAFEAGKYLVSNQEFLEFVQADGYETESYWEEEGRAWLKHAGAKHPTFWIRRGGEWELRLMTKEISMPWDWPVEVNYHEAKAFCNWKAAVSGQPYRLPTEDEWYRLYEVAGLSEVPAAAPAMANIHLDHGASSHPVNEFAQGDFYDVVGNVWQWTETPIYPFDGFDVHPHYDDFTTPTFDGRHNLIKGGSWISCGNESLKNSRYAFRRHFFQHAGFRYVVGTAPAIQHGSHYETDKLLSEYAEFHYGDTYFDVPNFPKALAELAIAAMGDKPAHKALDLGCASGRAAFELARHFDEVTGVDFSARFIGQGVQLASQGVLRYTLADEGDLVLYRERTLAGLGLDGVRHKVAFYQGDACNLKPIYTGYDLILAANLIDRLYDPAKLLTSIHTRINSGGILLIASPYTWLEEHTKREAWIGGFKRDGESFGTLDGLKEILGAHFRLIQGPTEVPFVIRETRRKFQHTLSEVTIWEKTA” stands “failed”; under “MLTLEIFRALLLGFTIGLTGALVPGPMLFATIELSLKKGWLAGPEVVFGHILVELVLSILILFGVASFIGSGAISAVSIIGGFSLTVFGLLTVKDAKTTASAGLSPETSGLKLTSNPVALGLITSVSNPYFWIWWLTAGSALVLKAYELGIIISIAYILGHWTADLSWFTAISGSFSRGKTLFSQQTHRYILYACGTFLIFFGLYFMFNYKGAAQLF”, “failed”. Next, “MALDNAKTSQKLQSLAELDGKAPSHRNLNVQTWSTAEGAKVLFVEARELPMFDLRLIFAAGSSQDGNAPGVALLTNAMLNEGVAGKDVGAIAQGFEGLGADFGNGAYKDMAVASLRSLSAVDKREPALKLFAEVVGKPTFPADSLARIKNQMLAGFEYQKQNPGKLASLELMKRLYGTHPYAHASDGDAKSIPPITLAQLKAFHAKAYAAGNVVIALVGDLSRSDAEAIAAQVSAALPKGPALAKIEQPAEPKASIGHIEFPSSQTSLMLAQLGIDRDDPDYAAVSLGNQILGGGGFGTRLMSEVREKRGLTYGVYSGFTPMQARGPFMINLQTRAEMSEGTLKLVQDVFAEYLKNGPTQKELDDAKRELAGSFPLSTASNADIVGQLGAMGFYNLPLSYLEDFMRQSQELTVEQVKAAMNKHLNVDKMVIVSAGPTVAQKPLEHHHHHH”: “failed”.
